These results are taken from patent publication US20170325479A1.

Data set [1] concerns the target T1, beta-lactoglobulin peptide IIAEK.
T1 chain: IIAEK

Data set [2] concerns the target T2, beta-casein tryptic peptide HKEMPFPK
T2 chain: HKEMPFPK

Data set [3] deals with T3, beta-casein tryptic peptide GPFPIIV.
T3 chain: GPFPIIV

Another data set has as its target T4, H-AAPPA-NH2.
T4 chain: AAPPA

Data set [4] concerns the target T5, beta-lactoglobulin peptide VYVEELKPTPEGDLEILLQK
T5 chain: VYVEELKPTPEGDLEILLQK

For data set [5], the target named is T6, 33-mer of gliadin (alpha-2-gliadin) (aa56-88).
T6 chain: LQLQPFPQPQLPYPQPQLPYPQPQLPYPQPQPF

B1: proline tolerant tripeptidyl peptidase TRI083 (protein)
chain: QEPSSCKGTLVFEGETFNVFQPDCLRTEYSVDGYTPSVKSGSRIGFGSFLNESASFADQALFEKHFNIPSQNFSVVLINGGTDLPQPPSDANDGEANLDAQTILTIAHPLPITEFITAGSPPYFPDPVEPAGTPNENEPYLQYYEFLLSKSNAEIPQVITNSYGDEEQTVPRSYAVRVCNLIGLLGLRGISVLHSSGDEGVGASCVATNSTTPQFNPIFPATCPYVTSVGGTVSFNPEVAWAGSSGGFSYYFSRPWYQQEAVGTYLEKYVSAETKKYYGPYVDFSGRGFPDVAAHSVSPDYPVFQGGELTPSGGTSAASPVVAAIVALLNDARLREGKPTLGFLNPLIYLHASKGFTDITSGQSEGCNGNNTQTGSPLPGAGFIAGAHWNATKGWDPTTGFGVPNLKKLLALVRF
Take B1: in data set [1], the “digestion measured with LC-MS” value was “shows the digestion of a fragment of β-lactoglobulin (peptide IIAEK) by a proline tolerant tripeptidyl peptidase”. The “digestion measured with LC-MS” value in data set [2] is “the peptide HKEMPFPK is also efficiently digested by the proline tolerant tripeptidyl peptidase”. Also, the “digestion measured with LC-MS” value in data set [3] was “the proline tolerant tripeptidyl peptidase is able to efficiently digest this peptide with proline in the P1′ position and in the P2 position”. Besides, in the data set with H-AAPPA-NH2, the “hydrolysis of substrate followed by LC-MS and label free quantification” value is “proline tolerant tripeptidyl peptidase over time is able to degrade the peptide AAPPA (FIG. 5) and generate the product AAP (FIG. 6)”. For the same protein, the “digestion measured with LC-MS” value in data set [4] was “shows the digestion of a fragment of β-lactoglobulin (peptide VYVEELKPTPEGDLEILLQK) by a proline tolerant tripeptidyl peptidase”. In data set [5], this protein showed a Relative MS peak intensities of alpha-2-gliadin (intact substrate), 0 min (relative MS peak intensity) of 100; a Relative MS peak intensities of alpha-2-gliadin (intact substrate), 1 min (relative MS peak intensity) of 10; a Relative MS peak intensities of alpha-2-gliadin (intact substrate), 3 min (relative MS peak intensity) of 0; a Relative MS peak intensities of alpha-2-gliadin (intact substrate), 5 min (relative MS peak intensity) of 0. Moreover, in data set [5], the Relative MS peak intensities of alpha-2-gliadin (intact substrate), 10 min (relative MS peak intensity) was 0; the Relative MS peak intensities of alpha-2-gliadin (intact substrate), 15 min (relative MS peak intensity) was 0; the Relative MS peak intensities of alpha-2-gliadin (intact substrate), 30 min (relative MS peak intensity) stood at 0; the “hydrolysis of substrate followed by LC-MS” value is given as “proline tolerant tripeptidyl peptidase was found to cleave the substrate alpha-2-gliadin consecutively into tri-peptides irrespective of a high proline content”. Further, the “digestion measured with LC-MS” value with Bradykinin was “The proline tolerant tripeptidyl peptidase efficiently digests the bradykinin peptide having the amino acid sequence RPPGFSPFR (see FIG. 24)”.
